The values below come from paper PMC9825174.

Common to all, as to test: EMSA
In general terms: Mobility shift assays separate free from complexed probe on a gel.

Series [1] addresses UV-DDB (DDB1-DDB2 heterodimer) (UniProt Q16531+Q92466). Particulars: EMSA: 20 mM HEPES pH 7.5, 150 mM NaCl, 2 mM DTT (5 mM in AAG native PAGE), 5% glycerol, 0.5 mg/ml BSA, 8 nM DNA, room temperature 20-30 min, 5% native gel at ….
Series [2] has as its target AAG D80 EQ (catalytically dead) E125Q (UniProt P29372). Particulars: 60 nM AAG D80 EQ, 8 nM DNA, text says THF, legend says ϵdA37, N20 of strand 1 = 1,N6-ethenoadenine (opposite T), EMSA: 20 mM HEPES pH 7.5, 150 mM NaCl, 2 mM DTT (5 mM in AAG native PAGE), 5% glycerol, 0.5 mg/ml BSA, room temperature 20-30 min, 5% native gel at ….
The target of series [3] is AAG WT (MPG) (UniProt P29372). Particulars: 60 nM AAG, 8 nM DNA, N20 of strand 1 = tetrahydrofuran abasic analogue (opposite T), EMSA: 20 mM HEPES pH 7.5, 150 mM NaCl, 2 mM DTT (5 mM in AAG native PAGE), 5% glycerol, 0.5 mg/ml BSA, room temperature 20-30 min, 5% native gel at ….

Chain of UniProt Q16531 (Q16531 whole entry, chain 1 of 2): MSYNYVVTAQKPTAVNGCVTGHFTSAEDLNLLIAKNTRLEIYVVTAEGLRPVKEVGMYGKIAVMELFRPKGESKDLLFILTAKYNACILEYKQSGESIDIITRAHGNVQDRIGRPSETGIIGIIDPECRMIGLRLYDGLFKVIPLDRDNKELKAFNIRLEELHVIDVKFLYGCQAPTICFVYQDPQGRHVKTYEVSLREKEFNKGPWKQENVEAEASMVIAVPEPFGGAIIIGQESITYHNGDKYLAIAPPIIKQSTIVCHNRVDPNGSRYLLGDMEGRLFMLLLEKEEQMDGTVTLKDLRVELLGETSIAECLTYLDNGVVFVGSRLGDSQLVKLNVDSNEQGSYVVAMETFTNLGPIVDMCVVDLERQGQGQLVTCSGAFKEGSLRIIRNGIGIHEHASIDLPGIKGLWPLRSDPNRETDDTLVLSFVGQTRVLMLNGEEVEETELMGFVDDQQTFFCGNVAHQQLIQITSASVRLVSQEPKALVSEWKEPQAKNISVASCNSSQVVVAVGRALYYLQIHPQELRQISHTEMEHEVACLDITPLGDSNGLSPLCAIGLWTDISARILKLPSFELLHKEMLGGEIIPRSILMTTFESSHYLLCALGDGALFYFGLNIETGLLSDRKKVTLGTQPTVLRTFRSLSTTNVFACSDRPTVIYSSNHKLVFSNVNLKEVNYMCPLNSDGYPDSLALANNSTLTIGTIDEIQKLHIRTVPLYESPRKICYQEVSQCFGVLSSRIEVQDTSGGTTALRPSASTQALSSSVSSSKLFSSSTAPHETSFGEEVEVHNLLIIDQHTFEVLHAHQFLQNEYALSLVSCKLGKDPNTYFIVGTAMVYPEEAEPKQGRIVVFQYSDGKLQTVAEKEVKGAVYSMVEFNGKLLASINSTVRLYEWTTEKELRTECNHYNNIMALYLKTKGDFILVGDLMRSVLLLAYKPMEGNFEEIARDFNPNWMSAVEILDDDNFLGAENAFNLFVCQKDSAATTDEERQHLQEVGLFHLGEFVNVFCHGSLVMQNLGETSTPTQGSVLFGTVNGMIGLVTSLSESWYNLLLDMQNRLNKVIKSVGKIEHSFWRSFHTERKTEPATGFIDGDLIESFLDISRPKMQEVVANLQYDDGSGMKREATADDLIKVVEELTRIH
Chain of UniProt Q16531 (Q92466 whole entry, chain 2 of 2): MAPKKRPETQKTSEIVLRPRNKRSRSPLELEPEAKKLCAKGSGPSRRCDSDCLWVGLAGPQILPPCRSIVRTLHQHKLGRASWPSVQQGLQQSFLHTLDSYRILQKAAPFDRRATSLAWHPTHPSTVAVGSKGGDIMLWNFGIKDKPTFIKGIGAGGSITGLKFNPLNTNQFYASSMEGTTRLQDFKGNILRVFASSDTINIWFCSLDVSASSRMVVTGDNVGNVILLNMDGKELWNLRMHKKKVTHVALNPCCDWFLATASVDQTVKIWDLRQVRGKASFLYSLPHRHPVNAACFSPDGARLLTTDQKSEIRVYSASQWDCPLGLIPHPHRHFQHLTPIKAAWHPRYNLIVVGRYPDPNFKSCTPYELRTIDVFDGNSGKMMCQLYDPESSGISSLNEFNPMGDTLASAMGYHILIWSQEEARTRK

With “CCGAGTCATTCCTGCAGCGNGTCCATGGGAGTCAAAT / ATTTGACTCCCATGGACTCGCTGCAGGAATGACTCGG [ϵdA37 (ϵA:T)]”, the Kd (in general, the free concentration of one partner at which half of the binding sites on the other are occupied at equilibrium, for simple one-to-one binding) in series [1] (N20 of strand 1 = 1,N6-ethenoadenine (opposite T)) worked out at 6 nM. The substance further returned a binding signal in series [2] of over 85 % DNA bound.

“CCGAGTCATTCCTGCAGCGNGTCCATGGGAGTCAAAT / ATTTGACTCCCATGGACTCGCTGCAGGAATGACTCGG [Hx37 (Hx:T)]”: the Kd in series [1] (N20 of strand 1 = hypoxanthine (deoxyinosine, opposite T)) stood at 8.6 nM.

undamaged 37 bp duplex (UD) showed a Kd in series [1] (no Mg2+, varies with preparation (32-42 nM)) of 31.8 nM.

For the substance “CCGAGTCATTCCTGCAGCGNGTCCATGGGAGTCAAAT / ATTTGACTCCCATGGACTCGCTGCAGGAATGACTCGG [THF37]”, the Kd in series [1] (N20 of strand 1 = tetrahydrofuran abasic analogue (opposite T)) came out at 1.8 nM. Besides, the binding signal in series [3] was over 85 % DNA bound.
